According to publication PMC6107761, “Preferential Binding of Mg^2+ Over Ca^2+ to CIB2 Triggers an Allosteric Switch Impaired in Usher Syndrome Type 1J” (Frontiers in Molecular Neuroscience, 2018):
Where a chain is given by its changes, count along the chain named. Numbers in names are those of the source.

B1: human wild type calcium and integrin binding protein 2 (CIB2) (natural protein, UniProt O75838-1 1-187, looked up)
chain: MGNKQTIFTEEQLDNYQDCTFFNKKDILKLHSRFYELAPNLVPMDYRKSPIVHVPMSLIIQMPELRENPFKERIVAAFSEDGEGNLTFNDFVDMFSVLCESAPRELKANYAFKIYDFNTDNFICKEDLELTLARLTKSELDEEEVVLVCDKVIEEADLDGDGKLGFADFEDMIAKAPDFLSTFHIRI
notes: 21.6 kDa; complete cDNA; Non-covalent dimer by SEC, Ferguson plots and DLS under reducing conditions; Tag removed by TEV protease; also called WT CIB2; WT; source: E. coli BL21 DE3, purified (His-trap, TEV cleavage, second His-trap flow-through); not shown: 6xHis, N-terminal, cleaved
B2: peptide of the membrane proximal segment of the cytoplasmic domain of α7B integrin, residues 1101-1116 (peptide)
peptide: Ac-LLLWKMGFFKRAKHPE-NH2
notes: Integrin α7B, membrane proximal segment of the cytoplasmic domain, residues 1101-1116 of Uniprot entry Q13683; source: synthetic peptide (GenScript)
B3: human E64D CIB2 (natural protein, UniProt O75838-1 1-187, looked up)
chain: B1 chain with E64D
notes: point mutation E64D made by site-directed mutagenesis on the complete cDNA; variant associated with Usher syndrome type 1J / non-syndromic hearing loss; After elution treated as the WT protein (TEV cleavage of the His tag); Dimer by SEC and Ferguson plots; also called p.E64D; USH1J-related variant; not shown: 6xHis, N-terminal, cleaved

Columns and labels:
[1] = biological target: B2; assay: other fluorescence titration; Trp emission spectra of 4 μM peptide alone and with fixed concentrations of WT CIB2 (8 μM for α7B_M; 2, 4 and 8 μM for Scrb); 20 mM Hepes, 150 mM KCl, 1 mM DTT pH 7.5, 37°C, 1 mM Mg2+ and 1 mM Ca2+; conditions: both partners purified
[2] = biological target: B2; assay: other fluorescence titration; 4 μM α7B_M peptide titrated with increasing CIB2; blue shift of the peptide's Trp emission peak (excitation 295 nm); 20 mM Hepes, 150 mM KCl, 1 mM DTT pH 7.5, 37°C, 1 mM Mg2+ and 1 mM Ca2+; apparent Kd; conditions: both partners purified
[3] = biological target: B1; assay: as above; conditions: both partners purified
human E64D CIB2 = biological target: B3; assay: as above; conditions: both partners purified
[4] = biological target: the molecule itself; assay: SEC; analytical SEC, Superose 12 10/300GL; 20 mM Tris pH 7.5, 150 mM KCl, 1 mM DTT with 3 mM EGTA or 2 mM EGTA + 3 mM Mg2+ or 3 mM Mg2+ + 2 mM Ca2+; WT 100 μM, E64D 70 μM; MW from a calibration plot

| Binder | fold increase in the maximal fluorescence emission of the peptide [1] [fold] | stoichiometry N [2] [CIB2 chains per peptide] | Kd [3] [µM] | Kd (human E64D CIB2) [µM] | stoichiometry N [4] |
| --- | --- | --- | --- | --- | --- |
| B1 | 1.7 | 2 | – | – | – |
| B2 | – | – | 4.99 | 3.1 | – |
| B3 | – | 2 | – | – | 2 |
